The values below come from publication PMC6693564, “RGG-motif self-association regulates eIF4G-binding translation repressor protein Scd6” (RNA Biology, 2019).

For data set [1], the target named is T1, HisSbp1FLAG (recombinant) (yeast, UniProt P10080 1-294).
T1 construct: Sbp1, yeast; also called full-length Sbp1FLAG; source: E. coli XL1-Blue, purified (Ni-NTA)
T1 sequence (looked up): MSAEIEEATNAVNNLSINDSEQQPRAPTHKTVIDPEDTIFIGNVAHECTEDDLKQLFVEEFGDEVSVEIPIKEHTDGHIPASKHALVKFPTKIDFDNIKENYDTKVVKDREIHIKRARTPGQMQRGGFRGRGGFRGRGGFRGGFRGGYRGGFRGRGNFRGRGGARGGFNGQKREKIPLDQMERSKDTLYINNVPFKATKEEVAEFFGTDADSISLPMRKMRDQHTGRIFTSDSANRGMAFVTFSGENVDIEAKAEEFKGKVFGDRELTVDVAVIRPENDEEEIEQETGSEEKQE
The experiment in a line: pull-down; FLAG pull-down of purified Sbp1FLAG with purified Sbp1GFP or Sbp1GFPΔRGG in the presence of RNase A; 450 nM proteins; blots with anti-GFP and anti-FLAG. Particulars: both partners purified.

A further data set addresses T2, GSTScd6 (recombinant) (yeast, UniProt P45978 1-349).
T2 construct: Scd6, yeast; also called full-length GSTScd6; source: E. coli BL21, purified (glutathione sepharose)
T2 sequence (looked up): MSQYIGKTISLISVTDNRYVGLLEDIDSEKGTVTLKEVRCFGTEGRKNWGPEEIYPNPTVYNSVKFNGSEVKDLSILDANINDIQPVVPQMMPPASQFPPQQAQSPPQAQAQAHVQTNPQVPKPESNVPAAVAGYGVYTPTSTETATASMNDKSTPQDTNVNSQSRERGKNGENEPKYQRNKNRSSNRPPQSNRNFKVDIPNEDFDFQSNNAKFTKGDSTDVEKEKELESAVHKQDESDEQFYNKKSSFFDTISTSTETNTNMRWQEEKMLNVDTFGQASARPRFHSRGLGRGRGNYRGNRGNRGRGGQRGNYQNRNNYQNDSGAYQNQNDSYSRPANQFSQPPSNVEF
The experiment in a line: pull-down; 450 nM purified proteins with glutathione sepharose beads, 2 h at 4°C, 50mM HEPES pH7, 100mM NaCl, 1mM DTT, 2mM MnCl2, 2mM MgCl2, 1% Triton-X100, 10% glycerol, 0.25mg/ml RNase A, 10mg/ml BSA; GST fusion as bait; anti-FLAG blot; for Figure 5e Scd6FLAG first incubated with Hmt1 with or without SAM. Particulars: both partners purified.

Data set [2] concerns the molecule itself. The experiment in a line: SEC; Sephacryl S-200 HR (45 ml, manual), 1 mg protein in 100 µl loaded, 20mM HEPES-KOH pH7.6, 100mM KCl, 10% glycerol; standards 200, 150, 66, 29 kDa. In general terms: Size exclusion chromatography separates by hydrodynamic size, large species first.

B1: HisSbp1GFP (recombinant) (natural protein, yeast, UniProt P10080 1-294, looked up)
chain: T1 sequence (looked up)
notes: Sbp1, yeast, wild type; source: E. coli XL1-Blue, purified (Ni-NTA)
Take B1: in data set [1], the binding result is on record as “binds”.

B2: in vitro methylated Scd6FLAG (natural protein, yeast, UniProt P45978 1-349, looked up)
chain: T2 sequence (looked up)
modifications: arginine methylation by Hmt1 in vitro (stained by mono-methylarginine specific antibody); sites not given
notes: Scd6, yeast; Same protein as m4 after methylation; source: E. coli BL21, purified, then methylated in vitro by incubating with Hmt1 and SAM
Regarding B2, the binding result in the data set with GSTScd6 (recombinant) is listed as “binds”.

B3: HisScd6FLAG (recombinant) (natural protein, yeast, UniProt P45978 1-349, looked up)
chain: T2 sequence (looked up)
notes: Scd6, yeast; predicted molecular mass of the purified protein about 41.5 kDa; also called purified Scd6; source: E. coli BL21, purified (HisTrap HP, HiTrap Heparin HP)
What is called stoichiometry N is the number of molecules, sites or subunits per partner or assembly. In the case of B3, the “stoichiometry N” value in data set [2] was 2.
